# Test results published in publication PMC12172446, “Murine norovirus allosteric escape mutants mimic gut activation” (Journal of Virology, 2025).
# B1: Murine norovirus MNV-1 capsid protein VP1, V339I escape mutant (in purified virions) (natural protein, murine norovirus (MNV-1, genotype GV.1), UniProt Q80J94 1-541, looked up)
# chain: MRMSDGAAPKANGSEASGQDLVPAAVEQAVPIQPVAGAALAAPAAGQINQIDPWIFQNFVQCPLGEFSISPRNTPGEILFDLALGPGLNPYLAHLSAMYTGWVGNMEVQLVLAGNAFTAGKVVVALVPPYFPKGSLTTAQITCFPHVMCDVRTLEPIQLPLLDVRRVLWHATQDQEESMRLVCMLYTPLRTNSPGDESFVVSGRLLSKPAADFNFVYLTPPIERTIYRMVDLPVIQPRLCTHARWPAPVYGLLVDPSLPSNPQWQNGRVHVDGTLLGTTPISGSWVSCFAAEAAYKFQSGTGEVATFTLIEQDGSAYVPGDRAAPLGYPDFSGQLEIEIQTETTKTGDKLKVTTFEMILGPTTNADQAPYQGRVFASVTAAASLDLVDGRVRAVPRSIYGFQDTIPEYNDGLLVPLAPPIGPFLPGEVLLRFRTYMRQIDTADAAAEAIDCALPQEFVSWFASNAFTVQSEALLLRYRNTLTGQLLFECKLYNEGYIALSYSGSGPLTFPTDGIFEVVSWVPRLYQLASVGSLATGRMLKQ
# notes: Capsid protein VP1 (~58 kDa; N-terminal, shell and protruding domains) of murine norovirus MNV-1, as it stands in the purified virion, with the escape mutation V339I on the C'D' loop; also called V339I mutant virus; apo V339I; source: BV-2 cells infected with the MNV-1 mutant; virions purified (PEG precipitation, ultracentrifugation, sucrose gradient); copies: 180
# B2: Murine norovirus MNV-1 capsid protein VP1, D348E escape mutant (in purified virions) (natural protein, murine norovirus (MNV-1, genotype GV.1), UniProt Q80J94 1-541, looked up)
# chain: MRMSDGAAPKANGSEASGQDLVPAAVEQAVPIQPVAGAALAAPAAGQINQIDPWIFQNFVQCPLGEFSISPRNTPGEILFDLALGPGLNPYLAHLSAMYTGWVGNMEVQLVLAGNAFTAGKVVVALVPPYFPKGSLTTAQITCFPHVMCDVRTLEPIQLPLLDVRRVLWHATQDQEESMRLVCMLYTPLRTNSPGDESFVVSGRLLSKPAADFNFVYLTPPIERTIYRMVDLPVIQPRLCTHARWPAPVYGLLVDPSLPSNPQWQNGRVHVDGTLLGTTPISGSWVSCFAAEAAYKFQSGTGEVATFTLIEQDGSAYVPGDRAAPLGYPDFSGQLEIEVQTETTKTGEKLKVTTFEMILGPTTNADQAPYQGRVFASVTAAASLDLVDGRVRAVPRSIYGFQDTIPEYNDGLLVPLAPPIGPFLPGEVLLRFRTYMRQIDTADAAAEAIDCALPQEFVSWFASNAFTVQSEALLLRYRNTLTGQLLFECKLYNEGYIALSYSGSGPLTFPTDGIFEVVSWVPRLYQLASVGSLATGRMLKQ
# notes: Capsid protein VP1 (~58 kDa; N-terminal, shell and protruding domains) of murine norovirus MNV-1, as it stands in the purified virion, with the escape mutation D348E on the C'D' loop; also called D348E virus; apo D348E; source: BV-2 cells infected with the MNV-1 mutant; virions purified (PEG precipitation, ultracentrifugation, sucrose gradient); copies: 180
# Target: the molecule itself
# Test: cryo-EM structure; purified virions, ~1 mg/mL, in 30 mM HEPES pH 7.4, 100 mM NaCl; nothing, CaCl2 or 10 mM GCDCA added (V339I), nothing added (D348E); icosahedral reconstruction of the capsid
row,Protein,binding result
1,B1,binds
2,B2,binds
